B1: COOH-terminal fragment of NPM, in vitro translated (peptide)
chain: KVPQKKVKLAADEDDDDDDEEDDDEDDDDDDFDDEEAEEKAPVKKSIRDTPAKNAQKSNQNGKDSKPSSTPRSKGQESFKKQEKTPKTPKGPSSVEDIKAKMQASIEKGGSLPKVEAKFINYVKNCFRMTDQEAIQDLWQWRKSL
notes: domain: COOH-terminal half; also called COOH-terminal peptide; COOH-terminal half of NPM

Columns and labels:
[1] = target: nucleophosmin/B23 (NPM), papain-released material from Jurkat membrane preparations (Mono-Q pool 85-87) (human) (UniProt P06748); experiment: competitive inhibition of the binding of 125I-labelled NPM to protein H-Sepharose by unlabeled fragment AB
nucleophosmin/B23 (NPM), papain-released material from Jurkat membrane preparations (Mono-Q pool 85-87) (human), sequence (P06748 1-149 limits assumed): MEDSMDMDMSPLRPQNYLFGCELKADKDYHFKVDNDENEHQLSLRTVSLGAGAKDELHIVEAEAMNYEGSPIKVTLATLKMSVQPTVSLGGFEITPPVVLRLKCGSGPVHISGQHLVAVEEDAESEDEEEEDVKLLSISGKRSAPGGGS

[2] = target: T1, protein H (COOH-terminally truncated fragment expressed by and purified from E. coli) (Streptococcus pyogenes, UniProt P50470 42-346); experiment: 35S-labelled in vitro translated peptide applied to protein H-Sepharose, KSCN eluate on SDS-PAGE, autoradiography
T1 construct: also called recombinant protein H; soluble protein H
T1 sequence: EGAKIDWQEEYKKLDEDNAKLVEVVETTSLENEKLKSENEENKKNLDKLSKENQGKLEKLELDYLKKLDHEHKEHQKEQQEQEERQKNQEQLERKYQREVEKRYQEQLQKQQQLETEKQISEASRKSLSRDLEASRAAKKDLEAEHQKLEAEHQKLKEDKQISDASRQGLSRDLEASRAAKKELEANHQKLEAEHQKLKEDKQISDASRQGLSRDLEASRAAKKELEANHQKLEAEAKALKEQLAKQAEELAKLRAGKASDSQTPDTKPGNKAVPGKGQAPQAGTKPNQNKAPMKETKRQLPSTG

| Molecule | IC50 (read off the curve) [1] [pmol] | binding result [2] |
| --- | --- | --- |
| fragment AB of protein H (peptide) | 100 |  |
| B1 |  | no binding |

Reference: patent US7176178 (HANSA MEDICAL, dated 2007)
